These results are taken from PMC8342710, “Switching at the ribosome: riboswitches need rProteins as modulators to regulate translation”.

For series [1], the target named is rS1-depleted 30S ribosomes from E. coli (E. coli (endogenous in strain JE28)) (UniProt P0A7V0). Description: MST; labeled 30SΔS1 (30 nM) with a 1:1 dilution series of rS1 (3 µM); 30 min at 25 °C; 25 mM potassium phosphate pH 7.2, 150 mM KCl, 5 mM MgCl2, 5 mM DTT, 0.4 mg/mL BSA, 0.05% Tween20, RNasin.
Series [2] addresses 30SΔS1 ribosomal subunit (rS1-depleted);ribosomal protein rS1 (Escherichia coli JE28;Vibrio vulnificus CMCP6) (UniProt A0A3Q0L6Y6). Kind of series: MST. As to conditions: MST: 25 mM K-phosphate pH 7.2, 150 mM KCl, 5 mM MgCl2, 5 mM DTT, 0.4 mg/mL BSA, 0.05% Tween20, RNasin, 25 °C, EMSA: 25 mM K-phosphate pH 7.2, 75 mM KCl.
Series [3] concerns the target ribosomal protein rS1 (Vibrio vulnificus CMCP6, UniProt A0A3Q0L6Y6 1-556). Kind of series: NMR; holo (adenine); 1:1 rS1 opens P4 and P5 by 50%; MST: 25 mM K-phosphate pH 7.2, 150 mM KCl, 5 mM MgCl2, 5 mM DTT, 0.4 mg/mL BSA, 0.05% Tween20, RNasin, 25 °C; EMSA: 25 mM K-phosphate pH 7.2, 75 mM KCl, 5 mM DTT, on ice. As to conditions: protein: recombinant; tags: N-terminal His-thioredoxin tag, cleaved by TEV; label: 13C,15N (NMR); riboswitch fold with helices P1-P5.

Regarding “ribosomal protein rS1 from Vibrio vulnificus (from UniProt A0A3Q0L6Y6 1-556) (natural protein)”, in series [1], the Kd turned out to be 170 nM. In series [2], “GCUUCAUAUAAUCCUAAUGAUAUGGUUUGGGAGUUUCUACCAAGAGCCUUAAACUCUUGAUUAUGAAGUCUGUCGCUUUAUCCGAAAUUUUAUAAAGAGAAGACUCAUGAAUUACUUUGACCUGCCG [ASW14-140, Cy5-labeled add riboswitch]” registered a Kd of 60 nM.

B1: ASW14-140, add riboswitch (structured_RNA)
RNA: GCUUCAUAUAAUCCUAAUGAUAUGGUUUGGGAGUUUCUACCAAGAGCCUUAAACUCUUGAUUAUGAAGUCUGUCGCUUUAUCCGAAAUUUUAUAAAGAGAAGACUCAUGAAUUACUUUGACCUGCCG
Turning to B1, the binding result in series [3] was “binds”.
